Assay results reported in article PMC8930183, “Structure of the Pf12 and Pf41 heterodimeric complex of Plasmodium falciparum 6-cysteine proteins” (FEMS Microbes, 2022).

B1: Pf41 D1D2 (residues 21-368), untagged [Plasmodium falciparum] / octa-histidine tagged Pf12 D1D2 (residues 28-304) [Plasmodium falciparum] (parent complex)
chain 1: KSHKCDFTKEKYLLSGEKEVSCEIDANPSDDITFICPNKIDSLCFHTVNISKNINQNKSTMSIQDLLYGSVVYGNTLFISPYVRTNTPFYCFCNLDTVTIQKFLKINRFLKDDDELSEADVMKHLKGGNVSEAQADEYLNKALNRFKKMKDLSKFFNDQADNTTKLNLPKSLNIPNDILNYDVYNSSNNRNDIVVKDEVTNKQIISKRGIMSVFVRSNNNVIKGCDFGNNNKNYFSHPISVAGKVNNKVCKIQGKPGELVGFKCAFEENGKVEPPNCFDQVLHKNKVTDLKTLIPGYASYTNKHSSKYPYYLKIPHFVNEQYTIQCKCKSNNSQNEYTFELDIQPGES
chain 2: NLTCDFNDVYKLEFHPNQQTSVTKLCNLTPNVLEKVTIKCGSDKLNYNLYPPTCFEEVYASRNMMHLKKIKEFVIGSSMFMRRSLTPNKINEVSFRIPPNMMPEKPIYCFCENKKTITINGSNGNPSSKKDIINRGIVEIIIPSLNEKVKGCDFTTSESTIFSKGYSINEISNKSSNNQQDIVCTVKAHANDLIGFKCPSNYSVEPHDCFVSAFNLSGKNENLENKLKLTNIIMDHYNNTFYSRLPSLISDNWKFFCVCSKDNEKKLVFTVEASISS

Variants of: B1
Assay: BLI; mutant at 1000 nM, 500 nM, and 250 nM; binding to immobilised WT Pf12; parent: 100; read off a plot

Q: How did the percent of parent turn out when chain 1 KSHKCDFTKEKYLLSGEKEVSCEIDANPSDDITFICPNKIDSLCFHTVNISKNINQNKSTMSIQDLLYGSVVYGNTLFISPYVRTNTPFYCFCNLDTVTIQKFLKINRFLKDDDELSEADVMKHLKGGNVSEAQADEYLNKALNRFKKMKDLSKFFNDQADNTTKLNLPKSLNIPNDILNYDVYNSSNNRNDIVVKDEVTNKQIISKRGIMSVFVRSNNNVIKGCDFGNNNKNYFSHPISVAGKVNNKVCKIQGKPGELVGFKCAFEENGKVEPPNCFDQVLHKNKVTDLKTLIPGYASYTNKHSSKYPYYLKIPHFVNAQYTIQCKCKSNNSQNEYTFELDIQPGES [chain 1 E320A] was run?
A: ~103 % WT

Q: How did the percent of parent turn out when chain 1 KSHKCDFTKEKYLLSGEKEVSCEIDANPSDDITFICPNKIDSLCFHTVNISKNINQNKSTMSIQDLLYGSVVYGNTLFISPYVRTNTPFYCFCNLDTVTIQKFLKINRFLKDDDELSEADVMKHLKGGNVSEAQADEYANKALNRFKKMKDLSKFFNDQADNTTKLNLPKSLNIPNDILNYDVYNSSNNRNDIVVKDEVTNKQIISKRGIMSVFVRSNNNVIKGCDFGNNNKNYFSHPISVAGKVNNKVCKIQGKPGELVGFKCAFEENGKVEPPNCFDQVLHKNKVTDLKTLIPGYASYTNKHSSKYPYYLKIPHFVNEQYTIQCKCKSNNSQNEYTFELDIQPGES [chain 1 L139A] was run?
A: ~4 % WT

Q: How did the percent of parent turn out when chain 1 KSHKCDFTKEKYLLSGEKEVSCEIDANPSDDITFICPNKIDSLCFHTVNISKNINQNKSTMSIQDLLYGSVVYGNTLFISPYVRTNTPFYCFCNLDTVTIQKFLKINRFLKDDDELSEADVMKHLKGGNVSEAQADEYLNKALNRAKKMKDLSKFFNDQADNTTKLNLPKSLNIPNDILNYDVYNSSNNRNDIVVKDEVTNKQIISKRGIMSVFVRSNNNVIKGCDFGNNNKNYFSHPISVAGKVNNKVCKIQGKPGELVGFKCAFEENGKVEPPNCFDQVLHKNKVTDLKTLIPGYASYTNKHSSKYPYYLKIPHFVNEQYTIQCKCKSNNSQNEYTFELDIQPGES [chain 1 F146A] was run?
A: ~37 % WT

Q: With chain 1 KSHKCDFTKEKYLLSGEKEVSCEIDANPSDDITFICPNKIDSLCFHTVNISKNINQNKSTMSIQDLLYGSVVYGNTLFISPYVRTNTPFYCFCNLDTVTIQKFLKINRFLKDDDELSEADVMKHLKGGNVSEAQADEYLNKALNRFKKMKDLSKFFNDQADNTTKLNLPKSLNIPNDILNYDVYNSSNNRNDIVVKDEVTNKQIISKRGIMSVFVRSNNNVIKGCDFGNNNKNYFSHPISVAGKVNNKVCKIQGKPGELVGFKCAFEENGKVEPPNCFDQVLHKNKVTDLKTLIPGYASYTNKHSSKYPYYLKIPHFVNEQYTIQCKCKSNNSQNEYTFELDIQPGAS [chain 1 E347A] as the variant, how does the percent of parent read?
A: ~18 % WT

Q: Which percent of parent does the source give for chain 1 KSHKCDFTKEKYLLSGEKEVSCEIDANPSDDITFICPNKIDSLCFHTVNISKNINQNKSTMSIQDLLYGSVVYGNTLFISPYVRTNTPFYCFCNLDTVTIQKFLKINRFLKDDDELSEADVMKHLKGGNVSEAQADEYLNKAANRFKKMKDLSKFFNDQADNTTKLNLPKSLNIPNDILNYDVYNSSNNRNDIVVKDEVTNKQIISKRGIMSVFVRSNNNVIKGCDFGNNNKNYFSHPISVAGKVNNKVCKIQGKPGELVGFKCAFEENGKVEPPNCFDQVLHKNKVTDLKTLIPGYASYTNKHSSKYPYYLKIPHFVNEQYTIQCKCKSNNSQNEYTFELDIQPGES [chain 1 L143A] here?
A: ~1 % WT

Q: For chain 1 KSHKCDFTKEKYLLSGEKEVSCEIDANPSDDITFICPNKIDSLCFHTVNISKNINQNKSTMSIQDLLYGSVVYGNTLFISPYVRTNTPFYCFCNLDTVTIQKFLKINRFLKDDDELSEADVMKHLKGGNVSEAQADEYLNKALNRFKKMKDLSKFFNDQADNTTKLNLPKSLNIPNDILNYDVYNSSNNRNDIVVKDEVTNKQIISKRGIMSVFVRSNNNVIKGCDFGNNNKNYFSHPISVAGKVNNKVCKIQGKPGELVGFKCAFEENGKVEPPNCFDQVLHKNKVTDLKTLIPGYASYTNKHSSKYPYYLKIPAFVNEQYTIQCKCKSNNSQNEYTFELDIQPGES [chain 1 H316A], which percent of parent is on record?
A: ~75 % WT

Q: Which percent of parent does the source give for chain 1 KSHKCDFTKEKYLLSGEKEVSCEIDANPSDDITFICPNKIDSLCFHTVNISKNINQNKSTMSIQDLLYGSVVYGNTLFISPYVRTNTPFYCFCNLDTVTIQKFLKINRFLKDDDELSEADVMKHLKGGNVSEAQADEYLNKALNRFKKMKDLSKFFNDQADNTTKLNLPKSLNIPNDILNYDVYNSSNNRNDIVVKDEVTNKQIISKRGIMSVFVRSNNNVIKGCDFGNNNKNYFSHPISVAGKVNNKVCKIQGKPGELVGFKCAFEENGKVEPPNCFDQVLHKNKVTDLKTLIPGYASYTNKHSSKYPYYLKIPHAVNEQYTIQCKCKSNNSQNEYTFELDIQPGES [chain 1 F317A] here?
A: ~1 % WT

Q: Which percent of parent does the source give for chain 1 KSHKCDFTKEKYLLSGEKEVSCEIDANPSDDITFICPNKIDSLCFHTVNISKNINQNKSTMSIQDLLYGSVVYGNTLFISPYVRTNTPFYCFCNLDTVTIQKFLKINRFLKDDDELSEADVMKHLKGGNVSEAQADEYLNKALNRFKKMKDLSKFFNDQADNTTKLNLPKSLNIPNDILNYDVYNSSNNRNDIVVKDEVTNKQIISKRGIMSVFVRSNNNVIKGCDFGNNNKNYFSHPISVAGKVNNKVCKIQGKPGELVGFKCAFEENGKVEPPNCFDQVLHKNKVTDLKTLIPGYASYTNKHSSKYPYYLKIPHFVAEQYTIQCKCKSNNSQNEYTFELDIQPGES [chain 1 N319A] here?
A: ~36 % WT
